US20090252741A1

Target: human CTLA-4Ig fusion protein (extracellular domain of human CTLA-4 and the Fc fragment of human IgG1) (human) (UniProt P16410)
Experiment: Biacore SPR, huCTLA-4Ig immobilized by amine coupling, mAb injected, 25 C

Sequence of UniProt P16410 (P16410 36-161): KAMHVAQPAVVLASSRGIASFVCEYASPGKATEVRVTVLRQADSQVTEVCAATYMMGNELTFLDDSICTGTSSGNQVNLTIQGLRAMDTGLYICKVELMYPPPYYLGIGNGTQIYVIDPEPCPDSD

- Kd: 3.06 nM
- koff: 0.000633 s⁻¹
- kon: 207000 M⁻¹ s⁻¹
B1: anti-human CTLA-4 mAb clone L3D10 (antibody, from another filing, V domains shown)
VH: QVQLKESGPGLVAPSQSLSITCTVSGFSLTSYGLSWVRQPPGKGLEWLGVIWYDGNTNFHSALISRLTISKDNSKSQVFLELNSLQTDDTATYYCAKTEGHYYGSNYGYYALDYWGQGTSVTVSS
VL: DIQMTQSPASLSVSVGETVTITCRASENIYSNLAWYQQKQGKSPQLLVYAATNLADGVPSRFSGSGSGTQYSLKINSLQSEDFGTYFCQHLWGTPYTFGGGTKLEIKR
